{
  "source": "patent US20250361274A1",
  "about": "“PEPTIDE AND PEPTIDE-CONTAINING AGENT” (PEPTIDREAM INC., priority 2022, published 2025)",
  "key": {"BMP4": {"target": "T1, BMP4 (Homo sapiens, UniProt P12644)", "T1 sequence (P12644 293-408)": "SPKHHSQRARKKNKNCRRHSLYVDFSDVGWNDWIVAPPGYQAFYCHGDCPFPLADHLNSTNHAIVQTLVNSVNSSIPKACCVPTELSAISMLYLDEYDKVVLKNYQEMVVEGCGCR", "experiment": "BMP4 signal transduction inhibitory activity: SMAD1 phosphorylation by BMP4 stimulus, AlphaLISA SureFire, A549 cells", "format": "cell-based", "settings": "for aLISA BMP4: inhibition of SMAD1 phosphorylation by BMP4 stimulus, A549 cells, ND"}, "BMP7": {"target": "T2, BMP7 (Homo sapiens, UniProt P18075)", "T2 sequence (P18075 293-431)": "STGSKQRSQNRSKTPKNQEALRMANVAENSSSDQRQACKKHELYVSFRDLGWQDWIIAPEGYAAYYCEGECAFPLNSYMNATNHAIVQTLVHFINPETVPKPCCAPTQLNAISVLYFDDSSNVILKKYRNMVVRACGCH", "experiment": "BMP7 signal transduction inhibitory activity: SMAD1 phosphorylation by BMP7 stimulus, A549 cells", "format": "cell-based", "settings": "for aLISA BMP7: inhibition of SMAD1 phosphorylation by BMP7 stimulus, A549 cells, ND", "summary_of_the_method": "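SMAD1 phosphorylation readout in A549 cells stimulated with BMP7 (10 nM). Peptides were tested at three levels (e.g. 1/10/100, 10/100/1,000, 100/300/1,000, 10/30/90 nM) or at eight points, 1/3 steps, from 100 or 1,000 nM. Recombinant Noggin served as positive control at matching concentrations.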"}, "[1]": {"settings": "SMAD1 phosphorylation, BMP4 0.2 nM, peptide conc. in assay 0.2, 2, 20 nM"}, "[2]": {"settings": "SMAD1 phosphorylation, BMP7 10 nM, peptide conc. in assay 1, 10, 100 nM"}, "[3]": {"settings": "BMP4 0.2 nM stimulus, peptide conc. in assay 0.2, 2, 20 nM"}, "[4]": {"settings": "BMP7 10 nM stimulus, peptide conc. in assay 1, 10, 100 nM"}},
  "note": "Numbered stars: 1 amine (or outer) side, 2 acyl side, 3 side chain; on linkers, the order of the positions; unused ones are H or OH. Bridge positions count the residues as written; N and C are the ends. Square brackets hold non-standard residues; d marks the D form. Ends that are not written are not given here. KCOpipzaa = N6-(4-(carboxymethyl)piperazine-1-carbonyl)-L-lysine, O=C(NCCCC[C@H](N[*:1])C(=O)[*:2])N1CCN(CC(=O)[*:3])CC1; 3Pal(6-Ph) = N[C@@H](Cc1ccc(-c2ccccc2)nc1)C(=O)O; Phe(4-COOH) = N[C@@H](Cc1ccc(C(=O)O)cc1)C(=O)O; NMePhe(4-Me) = CN[C@@H](Cc1ccc(C)cc1)C(=O)O; Bip = N[C@@H](Cc1ccc(-c2ccccc2)cc1)C(=O)O; Phe(4-F) = N[C@@H](Cc1ccc(F)cc1)C(=O)O; Pro(4,4-F2) = O=C(O)[C@@H]1CC(F)(F)CN1; Hyp = O=C(O)[C@@H]1C[C@@H](O)CN1; NMeF = CN[C@@H](Cc1ccccc1)C(=O)O; 3Pal = N[C@@H](Cc1cccnc1)C(=O)O; 4Pal = N[C@@H](Cc1ccncc1)C(=O)O; Aad = N[C@@H](CCCC(=O)O)C(=O)O; Cha = N[C@@H](CC1CCCCC1)C(=O)O; Abu = CC[C@H](N)C(=O)O; βAla = NCCC(=O)O",
  "data": [
    {"substance": "341 (FG[NMeF]G[Bip]GDD[Cha]S[NMeF]LHCG-NH2; not fully specified (N-terminus, bridges)) [compound 341]", "values": [
      {"measurement": "aLISA BMP4 (0.2 nM) % inh", "setting": "BMP4; [1]", "value": "ND (the inhibitory activity was less than 30% at the maximum concentration evaluated)"},
      {"measurement": "aLISA BMP7 (10 nM) % inh", "setting": "BMP7; [2]", "value": "D (showed less than 30% of inhibitory activity in 10 nM-addition zone and showed 30% or more of inhibitory activity in 100 nM-addition zone)"}
    ]},
    {"substance": "353 (FG[NMeF]G[Bip]GDD[Cha]A[NMeF]LSCG-NH2; not fully specified (N-terminus, bridges); also: cyclic peptide, ring closure not given here) [compound 353]", "values": [
      {"measurement": "aLISA BMP4 (0.2 nM) % inh", "setting": "BMP4; [1]", "value": "ND (the inhibitory activity was less than 30% at the maximum concentration evaluated)"},
      {"measurement": "aLISA BMP7 (10 nM) % inh", "setting": "BMP7; [2]", "value": "D (showed less than 30% of inhibitory activity in 10 nM-addition zone and showed 30% or more of inhibitory activity in 100 nM-addition zone)"}
    ]},
    {"substance": "132 ({CH2CO}-ERVYVSR[Bip]PYV[Bip]Y[Phe(4-COOH)][Phe(4-COOH)]SCG-NH2; thioether N-17; not fully specified) [compound 132]", "values": [
      {"measurement": "aLISA BMP4", "setting": "BMP4; peptides of Synthesis 1, classes D-F", "value": "E (showed less than 50% of inhibitory activity in 0.2 nM-addition zone and showed 50% or more of inhibitory activity in 2 nM-addition zone)"},
      {"measurement": "aLISA BMP7", "setting": "BMP7; peptides of Synthesis 1, classes E, F", "value": "ND (the inhibitory activity was less than 30% at the maximum concentration evaluated)"}
    ]},
    {"substance": "111 ({CH2CO}-ERVYVDR[Bip]PY[Pro(4,4-F2)][Bip]Y[Phe(4-COOH)][Phe(4-COOH)]SC[βAla][dE]-OH; thioether N-17; not fully specified) [compound 111]", "values": [
      {"measurement": "aLISA BMP4", "setting": "BMP4; peptides of Synthesis 2, classes A-C", "value": "A (showed an inhibitory activity of 50% or more in a zone to which the peptide was added to in an amount of 0.2 nM)"},
      {"measurement": "aLISA BMP7", "setting": "BMP7; peptides of Synthesis 2, classes A-D", "value": "C (showed less than 50% of inhibitory activity in 10 nM-addition zone and showed 50% or more of inhibitory activity in 100 nM-addition zone)"}
    ]},
    {"substance": "412 ([Phe(4-F)]G[NMeF]G[3Pal(6-Ph)]GDE[Cha][Aad][NMePhe(4-Me)]L[Phe(4-COOH)]C-NH2; not fully specified) [compound 412]", "values": [
      {"measurement": "aLISA BMP4 (0.2 nM) % inh", "setting": "BMP4; [3]", "value": "ND (the inhibitory activity was less than 30% at the maximum concentration evaluated)"},
      {"measurement": "aLISA BMP7 (10 nM) % inh", "setting": "BMP7; [4]", "value": "D (showed less than 30% of inhibitory activity in 10 nM-addition zone and showed 30% or more of inhibitory activity in 100 nM-addition zone)"}
    ]},
    {"substance": "376 (FG[NMeF]G[3Pal]GDD[Cha]A[NMeF]LHCG-NH2; not fully specified) [compound 376]", "values": [
      {"measurement": "aLISA BMP4 (0.2 nM) % inh", "setting": "BMP4; BMP4 0.2 nM stimulus, peptide conc. in assay 2, 20, 200 nM", "value": "ND (the inhibitory activity was less than 30% at the maximum concentration evaluated)"},
      {"measurement": "aLISA BMP7 (10 nM) % inh", "setting": "BMP7; BMP7 10 nM stimulus, peptide conc. in assay 10, 30, 90 nM", "value": "G (showed less than 30% of inhibitory activity in 30 nM-addition zone and showed 30% or more of inhibitory activity in 90 nM-addition zone)"}
    ]},
    {"substance": "286 (ERV[Phe(4-COOH)]VDR[3Pal(6-Ph)][KCOpipzaa]Y[Hyp][Bip][4Pal][Phe(4-COOH)][Phe(4-COOH)]SC[βAla][dE]-OH; not fully specified (N-terminus, bridges); also: cyclic peptide, ring not given here) [compound 286]", "values": [
      {"measurement": "aLIZA BMP4 (0.2 nM) % inh", "setting": "BMP4; BMP4 0.2 nM stimulus, peptide conc. in assay 0.02, 0.2, 2 nM, class symbols", "value": "B (showed less than 30% of inhibitory activity in 0.02 nM-addition zone and showed 30% or more of inhibitory activity in 0.2 nM-addition zone)"},
      {"measurement": "aLIZA BMP7 (10 nM) % inh", "setting": "BMP7; BMP7 10 nM stimulus, peptide conc. in assay 100, 300, 1000 nM, class symbols", "value": "G (showed less than 30% of inhibitory activity in 100 nM-addition zone and showed 30% or more of inhibitory activity in 300 nM-addition zone)"}
    ]},
    {"substance": "399 (FG[NMeF]G[Bip]GDE[Cha]Q[NMeF]L[Abu]CG-NH2; not fully specified) [compound 399]", "values": [
      {"measurement": "aLISA BMP4 (0.2 nM) % inh", "setting": "BMP4; [3]", "value": "ND (the inhibitory activity was less than 30% at the maximum concentration evaluated)"},
      {"measurement": "aLISA BMP7 (10 nM) % inh", "setting": "BMP7; [4]", "value": "C (showed less than 30% of inhibitory activity in a zone to which the peptide was added in an amount of 1 nM and showed 30% or more of inhibitory activity in 10 nM-addition zone)"}
    ]}
  ]
}
